Results taken from US20190367592A1 (AC IMMUNE, published 2019).
Where a chain is given by its changes, count along the chain named.

B1: hu125B11 HC1 + hu113F5-F7 LC2 (antibody, V domains shown)
VH: EVQLVESGGGLVQPGGSLRLSCAASRFIFSNYWMNWVRQAPGKGLEWVAQIRLKSDNYATHYAESVKGRFTISRDDSKNTVYLQMNSLRAEDTAVYYCTGGTTYWGQGTLVTVSS
VL: DIQMTQSPSSLSASVGDRVTITCKASQNVGTAVAWYQQKPGKAPKLLIYSASRRFSGVPSRFSGSGSGTDFTLTISSLQPEDFATYFCQQFSTYPYTFGQGTKVEIK
B2: hu125B11 HC4 + 125B11 LC1 (antibody, V domains shown)
VH: B1 VH with D76N, V81L
VL: B1 VL with A43S, R53I, F55Y, S56T, S92R
B3: hu125B11 HC4 + hu113F5-F7 LC1 (antibody, V domains shown)
VH: B1 VH with D76N, V81L
VL: B1 VL with A43S
B4: hu125B11 HC3 + 125B11 LC2 (antibody, V domains shown)
VH: B1 VH with V81L
VL: B1 VL with R53I, F55Y, S56T, S92R
B5: hu125B11 HC4 + 125B11 LC3 (antibody, V domains shown)
VH: B1 VH with D76N, V81L
VL: B1 VL with A43S, R53I, F55Y, S56T, F87Y, S92R
B6: hu125B11 HC3 + 125B11 LC3 (antibody, V domains shown)
VH: B1 VH with V81L
VL: B1 VL with A43S, R53I, F55Y, S56T, F87Y, S92R
B7: hu125B11 HC2 + 125B11 LC1 (antibody, V domains shown)
VH: B1 VH with D76N
VL: B1 VL with A43S, R53I, F55Y, S56T, S92R
B8: hu125B11 HC2 + hu113F5-F7 LC2 (antibody, V domains shown)
VH: B1 VH with D76N
VL: B1 VL
B9: hu125B11 HC2 + 125B11 LC3 (antibody, V domains shown)
VH: B1 VH with D76N
VL: B1 VL with A43S, R53I, F55Y, S56T, F87Y, S92R
B10: hu125B11 HC2 + 125B11 LC2 (antibody, V domains shown)
VH: B1 VH with D76N
VL: B1 VL with R53I, F55Y, S56T, S92R
B11: hu125B11 HC3 + 125B11 LC4 (antibody, V domains shown)
VH: B1 VH with V81L
VL: B1 VL with R53I, F55Y, S56T, F87Y, S92R
B12: hu125B11 HC2 + hu113F5-F7 LC3 (antibody, V domains shown)
VH: B1 VH with D76N
VL: B1 VL with A43S, F87Y
B13: hu125B11 HC4 + hu113F5-F7 LC2 (antibody, V domains shown)
VH: B1 VH with D76N, V81L
VL: B1 VL
B14: hu125B11 HC3 + hu113F5-F7 LC1 (antibody, V domains shown)
VH: B1 VH with V81L
VL: B1 VL with A43S
B15: hu125B11 HC5 + 125B11 LC1 (antibody, V domains shown)
VH: B1 VH with W33Y
VL: B1 VL with A43S, R53I, F55Y, S56T, S92R
B16: hu125B11 HC3 + hu113F5-F7 LC4 (antibody, V domains shown)
VH: B1 VH with V81L
VL: B1 VL with F87Y
B17: hu125B11 HC4 + hu113F5-F7 LC4 (antibody, V domains shown)
VH: B1 VH with D76N, V81L
VL: B1 VL with F87Y
B18: hu125B11 HC2 + 125B11 LC4 (antibody, V domains shown)
VH: B1 VH with D76N
VL: B1 VL with R53I, F55Y, S56T, F87Y, S92R
B19: hu125B11 HC2 + hu113F5-F7 LC4 (antibody, V domains shown)
VH: B1 VH with D76N
VL: B1 VL with F87Y
B20: hu125B11 HC2 + hu113F5-F7 LC1 (antibody, V domains shown)
VH: B1 VH with D76N
VL: B1 VL with A43S
B21: hu125B11 HC3 + hu113F5-F7 LC3 (antibody, V domains shown)
VH: B1 VH with V81L
VL: B1 VL with A43S, F87Y
B22: hu125B11 HC1 + hu113F5-F7 LC4 (antibody, V domains shown)
VH: B1 VH
VL: B1 VL with F87Y
B23: hu125B11 HC4 + hu113F5-F7 LC3 (antibody, V domains shown)
VH: B1 VH with D76N, V81L
VL: B1 VL with A43S, F87Y
B24: hu125B11 HC3 + hu113F5-F7 LC2 (antibody, V domains shown)
VH: B1 VH with V81L
VL: B1 VL
B25: 7A11-C12 (antibody, V domains shown)
VH: QIQLVQSGPDLKKPGETVKISCKASGYTFTNYGMNWVKQAPGKGLKWMGWINTNTGEPTYAEEFKGRFAFSLETSASTAYLQIDNLKNEDTATYFCARGTVSFPYWGQGTLVTVSA
VL: DVVMSQTPLSLPVSLGDHASISCRSSQNLVHSDGNTYLHWYLQKPGQSPKLLIYKVSNRFSGVPDRFSGSGSGTDFTLKISRVEAEDLGVYFCSQSTHVIFTFGSGTKLEIK
notes: hybridoma supernatant
B26: 65B1-A2 (antibody, V domains shown)
VH: QVQLKESGPGLVAPSQSLSITCTISGFSLTTYGVHWVRQPPGKGLEWLVVIWSDGSTTYNSALKSRLSISKDNSKSQVFLKMNSLQTDDTAMYYCARQGGFITTAYYAMDYWGQGTSVTVSS
VL: DIVMSQSPSSLAVSAGEKVTMSCKSSQSLLNSRTRKNYLAWYQQKPGQSPKLLIYWASTRESGVPDRFTGSGSGTDFTLTISSVQAEDLAVYYCKQSYNLYTFGGGTKLEIK
notes: hybridoma supernatant
B27: 83E10-D6 (antibody, V domains shown)
VH: EVQLQQSGAELVRSGASVKLSCTASGFNIKDYYIQWVKQRPEQGLEWIGWIDPENGDTDYAPKFQGKATMTADTSSNTAYLQFSSLTSEDTAVYYCNRGWGYWGQGTTLTVSS
VL: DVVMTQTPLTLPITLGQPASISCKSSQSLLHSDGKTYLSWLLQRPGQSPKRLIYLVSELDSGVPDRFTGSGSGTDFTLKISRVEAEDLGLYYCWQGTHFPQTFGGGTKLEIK
notes: hybridoma supernatant
B28: 26C1-C8 (antibody, V domains shown)
VH: EVHLQQSGAELVRSGASVKLSCTASGFNIKDYYMYWVKQRPEQGLEWIGWIDPENGDTEYFPKFQGKATMTADTSSKTAYLQLSSLTSEDTAVYYCNAWRARATNSALDYWGQGTSVTVSS
VL: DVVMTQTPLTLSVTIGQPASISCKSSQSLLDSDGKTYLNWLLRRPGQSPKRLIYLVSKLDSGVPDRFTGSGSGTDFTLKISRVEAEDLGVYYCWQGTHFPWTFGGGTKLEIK
notes: hybridoma supernatant
B29: 63H3-D8 (antibody, V domains shown)
VH: QIQLVQSGPELKKPGETVKISCKASGYTFTSHGMSWVKQAPGKGLKWMGWINTYSGVPTYADDFKGRFAFSLETSASTAYLQINNLKNEDTATYFCARSELSWFAYWGQGTLVTVSA
VL: DIVMTQSPATLSVTPGDRVSLSCRASQSISDYLHWYQQKSHESPRLLIKYASQSISGIPSRFSGSGSGSDFTLSINSVEPEDVGVYYCQNGHSFPYTFGGGTKLEIK
notes: hybridoma supernatant
B30: 64B9-F12 (antibody, V domains shown)
VH: B29 VH with K12R, S31T, H32Y, K43E, V57M, S77R
VL: B29 VL with S93N
notes: hybridoma supernatant
B31: 49G10-F4 (antibody, V domains shown)
VH: QVQLQQPGAELVQPGASVKLSCKASGYTFTNYWMQWIKQRPGQGLEWIGEIDPSDSYTNYNQNFKDKATLTVDTSSRTAYMQLSSLTSEDSAVYYCTRRWYINSVRYFDVWGTGTTVTVSA
VL: DVLMTQTPLSLSASLGDQASISCRSSQSIVHSNGNIYLEWYLQKPGQSPKLLIYKVSNRFSGVSDRFSGSGSGTDFTLKISRVEAEDLGVYYCFQGAHVPFTFGAGTKLEIK
notes: hybridoma supernatant
B32: 61E7-C4 (antibody, V domains shown)
VH: EVQLVESGGDLVKPGGSLKVSCVASGFTFRSYGMSWVRQTPDKRLDWVATISSGGNYTYYPDSVKGRFTISRDNAKNTLYLQMSSLKSEDTAMYYCASSYSGAMDYWGQGTSVTVSS
VL: DTVMTQSPLSLPVSLGDQASISCRSSQSIVHSNGNTYLEWYLQKPGQSPKLLIYTVSNRFSGVPDRFSGSGSGTDFTLKISRVEAEDLGVYYCFQGSHVPWTFGGGTKLEIK
notes: hybridoma supernatant
B33: 19F8-B1 (antibody, V domains shown)
VH: EVQLQQSGPELVKPGASVKMSCKASGYTFTDYYMKWVKQSHGKSLEWIGDLNPNNGGTLYNQKFKGQATLTVDKSSSTAYMQFNSLTSEDSAVYYCARSAGYGDSFAYWGQGTLVTVSA
VL: B32 VL with T2V, V3L, S7T, S28N, T55K, V90I, Y92F, W101P
notes: hybridoma supernatant
B34: 24A11-D5 (antibody, V domains shown)
VH: B33 VH with N54K, T58I, L59I, F83L, Y94F, A100G
VL: B32 VL with T2V, V3L, S7T, S28N, T55K, V90I, Y92F, W101P
notes: hybridoma supernatant

Target: T1, recombinant human Tau monomer, 2N4R isoform (amino acids 2-441) (human, UniProt P10636-8 2-441)
T1 construct: range 2-441; N-terminal His-tag removed with TEV protease; also called monomeric Tau
T1 sequence (P10636 other isoform, or with tags, fused parts or gaps limits assumed): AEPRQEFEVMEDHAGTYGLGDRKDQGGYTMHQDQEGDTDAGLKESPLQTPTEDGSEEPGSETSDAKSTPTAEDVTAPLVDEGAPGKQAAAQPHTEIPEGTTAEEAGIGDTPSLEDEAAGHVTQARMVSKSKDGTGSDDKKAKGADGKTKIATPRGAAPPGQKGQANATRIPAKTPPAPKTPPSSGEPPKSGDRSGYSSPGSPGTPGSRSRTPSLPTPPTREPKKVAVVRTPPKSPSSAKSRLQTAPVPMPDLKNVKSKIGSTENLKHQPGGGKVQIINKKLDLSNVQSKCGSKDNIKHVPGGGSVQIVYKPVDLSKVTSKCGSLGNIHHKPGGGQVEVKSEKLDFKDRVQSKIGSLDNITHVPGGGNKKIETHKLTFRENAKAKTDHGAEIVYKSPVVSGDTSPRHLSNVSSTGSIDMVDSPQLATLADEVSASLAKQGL
Assay: SPR screen, hIgG captured, Tau monomer analyte
Description: Antibody 125B11-H3 was humanized onto VH3 and Vκ1 consensus frameworks. The heavy chain graft included murine residues at position 78 (Kabat numbering system). The Vκ1 graft included murine residues in framework positions 43 and 87. The light chain of 113F5-F7 was also humanized onto the Vκ1 framework, with additional murine residues at framework positions 43 and 87. Humanized variant heavy chains (125B11) and light chains (125B11 and 113F5-F7) were co-transfected in multiple combinations and purified in 96-well format as described above. Humanized variants were then screened for affinity for human Tau monomer using the Biacore human IgG capture kit, a Series S CM5 chip and a Biacore T200 instrument. Antibodies were diluted to 2 μg/ml and captured for 15 seconds at 10 μl/min. Association and dissociation of 0, 100 and 500 nM human Tau monomer in HBSP was monitored for 180s and 300s respectively at a flow rate of 40 μl/min. A 1:1 binding model was applied to the results (Table 9).

Binder | Kd [nM]
B1 | 67
B2 | 15
B3 | 44
B4 | 19
B5 | 15
B6 | 20
B7 | 18
B8 | 68
B9 | 23
B10 | 20
B11 | 20
B12 | 64
B13 | 47
B14 | 54
B15 | 85
B16 | 65
B17 | 51
B18 | 22
B19 | 77
B20 | 61
B21 | 54
B22 | 71
B23 | 47
B24 | 55

Target: T2, full-length human Tau (flTau) (human, UniProt P10636-8 1-441)
T2 construct: range 1-441; bought (SignalChem); also called human Tau-441
T2 sequence (P10636 other isoform, or with tags, fused parts or gaps limits assumed): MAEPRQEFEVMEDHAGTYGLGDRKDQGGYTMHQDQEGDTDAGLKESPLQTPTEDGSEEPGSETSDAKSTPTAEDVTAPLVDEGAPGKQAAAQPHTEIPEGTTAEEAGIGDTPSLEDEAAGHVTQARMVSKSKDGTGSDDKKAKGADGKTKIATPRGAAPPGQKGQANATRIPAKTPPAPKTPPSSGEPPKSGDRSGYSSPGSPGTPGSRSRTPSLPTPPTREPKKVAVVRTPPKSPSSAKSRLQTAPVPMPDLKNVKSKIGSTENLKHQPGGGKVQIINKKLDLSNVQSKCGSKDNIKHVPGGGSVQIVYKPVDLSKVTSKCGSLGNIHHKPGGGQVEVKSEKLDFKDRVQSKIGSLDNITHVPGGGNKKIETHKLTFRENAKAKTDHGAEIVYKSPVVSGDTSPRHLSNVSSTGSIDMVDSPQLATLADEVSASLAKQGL
Assay: SPR, hybridoma Ab on anti-IgG chip, flTau analyte
Protocol: Affinity of non-purified antibodies in serum-free hybridoma supernatants was estimated by surface plasmon resonance using a Biacore T-100 instrument (GE Healthcare, United Kingdom). Antibodies were immobilized onto an anti-IgG biosensor chip, and flTau (SignalChem, Canada) was used as the target analyte. Kinetic analysis was done using a 1:1 Langmuir fit model.
For affinity measurements to flTau, antibodies were measured using SPR on a Biacore instrument, with the KDs determined. Biacore affinity measurements were done by immobilizing antibodies on an anti-IgG chip and using flTau as the target analyte.

Binder | Kd [nM]
B25 | 0.5
B26 | 0.8
B27 | 0.4
B28 | 4.3
B29 | 0.5
B30 | 2
B31 | 1
B32 | 3.3
B33 | 2.9
B34 | 2
